Test results reported in patent US20160039936A1, “FIBROBLAST GROWTH FACTOR RECEPTOR INHIBITION FOR THE TREATMENT OF DISEASE” (UNIVERSITY OF MIAMI, priority 2011, published 2016).

Experiments:
[1] = system: C57BL/6 mice; test: Intra-myocardial injection of FGF23 in mice; assay type: in vivo, mouse; settings: 7.5 ng FGF23 intra-myocardial
Experimental: Twelve-week old adult C57BL/6 mice (Jackson Laboratories) underwent cardiac surgery using a standard operative procedure that has been described previously for intra-myocardial implantation of stem cells (Amado et al., Proc. Natl. Acad. Sci. U.S.A., 102(32):11474-11479, 2005). All procedures were performed by a single investigator who was blinded to the specific treatment group. All protocols and experimental procedures were approved by the Institutional Animal Care and Use Committee at the University of Miami Miller School of Medicine. Briefly, mice were anesthetized with isoflurane and an incision was made between the 3rd and 4th rib to reveal a cardiac window. Three injections of purified recombinant murine FGF23 in PBS or PBS alone were delivered into the free wall of the left ventricle via a 30-gauge needle attached to a standing Hamilton syringe. At each of the three sites, 10 μl were injected for a total of 30 μl containing a total of 7.5 ng FGF23. Cardiac function was evaluated by Vevo 770 imaging system (Visual Sonics, Toronto, Canada) at baseline and 2 weeks after surgery. Long and short axis 2D parasternal views and short axis M mode views were recorded under general anesthesia with isoflurane inhalation delivered through a nose mask. The heart rate was maintained above 400 bpm with controlled body temperature set to 37° C. At 7- and 14-days post-injection, animals were sacrificed, hearts were isolated, perfused ex-vivo (6 ml of 10% Formalin with 4 ml of 20 mM KCl), stored overnight in 10% formalin for fixation, and then serially sectioned (7 μm slices) and stained with hematoxylin and eosin. Age-matched untreated animals were sacrificed at 14 weeks of life. […]
(§1) Short-axis cardiac sections were used to quantify myocardial thickness by measuring the distance from the inner to the outer myocardial zone at the mid-chamber zone. […] Since klothro-ablated kl/kl mice display severe growth retardation with small hearts (Kuro-o et al., Nature, 390(6655):45-51, 1997), we also measured relative wall thickness calculated as two times the anterior wall thickness divided by left ventricular internal diameter. Total RNA was isolated from flash frozen hearts using TRIzol (Invitrogen) and RT-PCR analyses were performed as described above.
(§2) We measured cross-sectional surface area of cardiac myocytes in paraffin-embedded short-axis sections of the heart. Briefly, 7 μm thick sections were deparaffinized according to our established protocols. To specifically label cardiac myocytes, we used mouse monoclonal MF20 antibody against sarcomeric myosin at 1:200 and Cy5-conjugated donkey-anti mouse (Invitrogen) as secondary antibody at 1:400. To visualize nuclei, fixed tissue was incubated with 4′,6-diamidino-2-phenylindole (DAPI; 400 ng/ml in PBS) for 5 minutes. To visualize cellular borders, fixed tissue was incubated with wheat germ agglutinin (WGA) conjugated to Alexa Fluor 555 (Invitrogen) at 1 mg/ml in PBS containing 10 mM sodium azide. Immunofluorescence images were taken on a Leica TCS-SP5 confocal microscope with a 63× oil objective. Leica AF6000 fluorescence software was used to quantify cross-sectional cell surface area of 25 cells per field at four fields along the mid-chamber free wall based on WGA-positive staining.
Blood was collected at sacrifice via cardiac puncture and was centrifuged at 4° C. and 14,000 rpm for 15 minutes. Plasma supernatants were collected, stored at −80° C., and subsequently analyzed in batches for FGF23 (C-terminal mouse assay, Immutopics), PTH (1-84 assay, Alpco Immunoassays), and phosphate, calcium, BUN and creatinine (Ortho Vitros 250 Chemistry Analyzer).

[2] = system: C57BL/6 mice; test: Intravenous injection of FGFs (with or without Fc-FGFR decoy receptors) in mice; assay type: in vivo, mouse; settings: FGF23 40 μg/kg i.v. twice daily 5 days
Experimental: Twelve-week old adult C57BL/6 mice underwent tail vein injections using standard protocols as previously described for the systemic delivery of plasmid DNA (Faul et al., 2008). Briefly, mice were placed in a restrainer and 40 μg/kg of FGF23 dissolved in 200 μl of PBS were injected into the tail vein of 5 mice twice daily with eight hours in between injections for 5 consecutive days. Four mice underwent the same injection schedule using 200 μl of PBS alone as negative control. On the morning of the 6th day, 16 hours after the final tail vein injections, animals were sacrificed and the hearts were isolated and prepared using the same protocol as described above.
as §1, §2
Next, we wanted to determine the effectiveness of this FGFR trapping system on FGF-induced LVH in mice. To our knowledge, Fc decoy receptors have not yet been used to study FGFR function in vivo in any biological context, but served as valuable tools to analyze the functions of other receptor tyrosine kinases, like receptors for vascular endothelial growth factor (VEGFR) and their role in tumor growth and metastasis. We used similar Fc-FGFR concentrations as described for Fc-VEGFR in animal models of cancer (Lin J et al., Cancer Res. 2005; 65(15):6901-9).

B1: FGF23: recombinant mouse FGF23, 6His-tagged Tyr25-Val251 (Arg179Gln) (R&D Systems) (protein)
chain: YPDTSPLLGSNWGSLTHLYTATARTSYHLQIHRDGHVDGTPHQTIYSALMITSEDAGSVVITGAMTRRFLCMDLHGNIFGSLHFSPENCKFRQWTLENGYDVYLSQKHHYLVSLGRAKRIFQPGTNPPPFSQFLARRNEVPLLHFYTVRPRRHTQSAEDPPERDPLNVLKPRPRATPVPVSCSRELPSAEEGGPAASDPLGVLRRGRGDARGGAGGADRCRPFPRFV
modifications: left off: small tags and cut ends
For B1, the “cross-sectional surface area of cardiac myocytes (WGA)” value [1] was “significant increase”, the “expression of β-MHC, ANP and BNP” value [1] was “increase” and the “α-MHC and MCAD mRNA levels” value [1] was “decrease”. The “thickness of the left ventricular free wall” value ([1]; day 7, vs vehicle) was “significant increase”, the “left ventricular internal diameter in diastole” value ([1]; day 14) was “significantly decreased” and the relative wall thickness ([1]; day 14) was “increased”. The “thickness of the left ventricular free wall” value ([1]; day 14) was “increased further”, the “ratio of heart weight to tibial length” value ([1]; day 14, vs vehicle) was “significantly increased” and the “thickness of the interventricular septum” value ([1]; day 14, vs vehicle) was “increased significantly”. The “levels of FGF23, phosphate, calcium, PTH, BUN, or creatinine vs vehicle” value ([1]; days 7 and 14) was “no significant differences”, the ejection fraction ([1]; echocardiography over time) was “no change” and the cardiac weight/tibial length ([2]; vs vehicle) was “significantly increased”. The “cross-sectional surface area of individual cardiac myocytes” value ([2]; vs vehicle) was “increased”, the “expression of α-MHC and MCAD mRNA levels” value ([2]; vs vehicle) was “decreased expression” and the “expression of β-MHC, ANP and BNP” value ([2]; vs vehicle) was “increased expression”. For the same molecule, the “left ventricular wall thickness” value ([2]; vs vehicle) was “increased” and the “FGF23 levels at the time of sacrifice” value ([2]; 16 hours after final injection, vs PBS) was “significantly increased”.
